Here are results for one substance from patent US20230057622A1.

Read-outs that look alike come from different tables or passages of the source.

Assay [1] has as its target receptor on MCF-7 cells. The experiment in a line: cell-based or functional assay.
The target of assay [2] is receptor on MCF-7 cells. The assay can be described thus: cell-based or functional assay. This is another data set of the same source.

As to “recombinant NRG polypeptide with an amino acid sequence of SEQ ID NO: 1 (from UniProt Q02297-11 122-190) (ligand)”, the EC50 stood at 0.924 nM in assay [1] and 1.65 nM in assay [2].

For orientation: EC50 means the midpoint of the concentration-response curve. Read a low EC50 as a more potent agent.
